For assay [1], the target named is human CD1a expressed on cells (with human β2M) (human) (UniProt P06126). Kind of assay: flow cytometry of ear skin cells of a CD1a transgenic mouse given antibody 116 100 µg i.p. on days 0, 2 and 4 (panel 'CD1a : OX116'), SK9 staining on day 5.
For assay [2] the target is unchanged. Nature of the assay: flow cytometry of ear skin cells of a CD1a transgenic mouse given isotype control (panel 'CD1a : iso'), SK9 staining; the WT mouse panel prints 1.30.
The target is the same in assay [3].
For assay [4] the target is unchanged. Nature of the assay: flow cytometry of ear skin cells of a CD1a transgenic mouse given antibody 116 100 µg i.p. on days 0, 2 and 4 (row 'CD1a : OX116'), HI149 staining on day 5; the cloud lies on the lower edge of the gate.
The target is the same in assay [5]. Kind of assay: flow cytometry of ear skin cells of a CD1a transgenic mouse given isotype control (row 'CD1a : iso'), HI149 staining; the WT mouse panel prints 0. For orientation: In flow cytometry, cells or beads pass a laser one at a time.
Assay [6] deals with T1, human CD1d expressed on HEK-293 cells (with human β2M) (human, UniProt P15813 20-335; P61769 21-119).
T1 construct: whole, on cells; also called HEK-CD1d
Kind of assay: flow cytometry, transfected HEK-293 cells.

For assay [7], the target named is T2, human CD1c expressed on HEK-293 cells (with human β2M) (human, UniProt P29017 18-333; P61769 21-119).
T2 construct: whole, on cells; also called HEK-CD1c
Nature of the assay: flow cytometry, transfected HEK-293 cells.

Assay [8] concerns the target T3, human CD1b expressed on HEK-293 cells (with human β2M) (human, UniProt P29016 18-333; P61769 21-119).
T3 construct: whole, on cells; also called HEK-CD1b
Kind of assay: flow cytometry, transfected HEK-293 cells.

For assay [9], the target named is human CD1a expressed on cells (with human β2M) (human, UniProt P06126 17-327; P61769 21-119). Nature of the assay: cell-based or functional assay.

Substitutions are numbered along the chain they refer to.

The values below come from patent US20240383986A1 (OXFORD UNIVERSITY INNOVATION, published 2024).

SK9 (antibody): the results for the CD1a+ gate (percent of plotted cells) in assay [1] and in assay [2] were 87.4% and 84.9%, respectively. In [3], this molecule had an IC50 of inhibition of the polyclonal T cell IFNγ ELISpot response to CD1a-K562 (n=6 donors) of 6960 µg/mL.

On to OKT6 (antibody), for which the IC50 of inhibition of the polyclonal T cell IFNγ ELISpot response to CD1a-K562 (n=6 donors) in [3] was found to be 1.97 µg/mL.

For HI149 (antibody), the values for the CD1a+ gate (percent of plotted cells) in assay [4] and in [5] were 46.6% and 82.2%, respectively. Moreover, the IC50 of inhibition of the polyclonal T cell IFNγ ELISpot response to CD1a-K562 (n=6 donors) in [3] worked out at 1.14 µg/mL.

B1: 116 (VR12117) (antibody, V domains shown)
VH: QSVEESGGRLVTPGTPLTLTCTVSGFSLSNYAMSWVRQAPGKGLEWIGIIYTTGFTYYASWVKGRFTISKTSTTVDLKITSPTTEDTATYFCARGLATYVSPPTRLDLWGQGTLVTVSS
VL: AQVLTQTPSPVSAAVGGTVTINCQASQSIYNSKNLAWYQQKPGQPPKLLIYSASTLASGVPSRFKGSGSGTQFTLTISDLECDDAATYYCQGEFSCSSVDCATFGGGTEVVVK
notes: also called OX116
Take B1: the binding result in assay [6], in assay [7] and in [8] was “no binding (tested: up to 100 µg/ml)” in each case. In addition, the “IC50 of inhibition of the polyclonal T cell IFNγ ELISpot response to CD1a-K562 (n=6 donors)” value in assay [9] came to 0.141 µg/mL.

B2: 110 (VR12112) (antibody, V domains shown)
VH: QSVEESGGRLVTPGTPLTLTCTVSGFSLSSYAMIWVRQAPGKGLEWIGIINSSDNTHYATWAKGRFTISKTSTTVDLKITSPTTEDTATYFCARDPYDYGYGWYFDLWGPGTLVTVSS
VL: AQVLTQTPSPVSAAVGGTVTINCQASQSVFNNKNLAWYQQKPGQPPKLLIYKASTLASGVSSRFKGSGSGTQFALTISGVQCDDAATYYCQGEFSCSSTDCVTFGGGTEVVVK
As to B2, the binding result in assay [6], in [7] and in [8] was “no binding (tested: up to 100 µg/ml)” throughout. Besides, in assay [9], the “IC50 of inhibition of the polyclonal T cell IFNγ ELISpot response to CD1a-K562 (n=6 donors)” value stood at 0.155 µg/mL.

B3: 111 (VR12113) (antibody, V domains shown)
VH: QSVEESGGRLVTPGTPLTLTCTASGFSLSTYAMSWVRQAPGKGLEWIGIISSSGSTYYASWAKGRFTISKTSTTVDLKITSPTTEDTATYFCARETWYWLDLWGQGTLVTVSS
VL: AVEMTQTPASVSAAVGGTVTINCQASEDIYSNLAWYQQKPGQPPKLLIYGASTLASGVPSRFKGSGSGTEYTLTISGVQCDDAATYYCQCAYDSSSYGTPFGGGTEVVVK
As to B3, the binding result in assay [6], in assay [7] and in assay [8] was “no binding (tested: up to 100 µg/ml)” in each case. In addition, in assay [9], the “IC50 of inhibition of the polyclonal T cell IFNγ ELISpot response to CD1a-K562 (n=6 donors)” value was 1.04 µg/mL.

B4: 77A (VR11851) (antibody, V domains shown)
VH: QSVEESGGRLVTPGTPLTLTCTVSGFSLSSYAMSWVRQAPGKGLEWIGIISSSGTTYYASWAKGRFTISKTSTTVDLKITSPTTEDTATYFCARVDYYSSGWGGLWGPGTLVTVSS
VL: B3 VL with V11M, N22K, A91T, S94T, T99N, P100T, V107M, K110E
Take B4: the binding result in assay [6], in assay [7] and in assay [8] was “no binding (tested: up to 100 µg/ml)” throughout. Further, the “IC50 of inhibition of the polyclonal T cell IFNγ ELISpot response to CD1a-K562 (n=6 donors); table row '77'” value in [9] came to 0.181 µg/mL.
